From patent US11406665B2, “Therapeutic peptides that target TGF-beta interaction” (GENAGON THERAPEUTICS AB, priority 2017, dated 2022)

T1: TGFb3 (Homo sapiens, UniProt P10600)
T1 construct: purchased Abcam
T1 sequence (P10600 301-412 limits assumed): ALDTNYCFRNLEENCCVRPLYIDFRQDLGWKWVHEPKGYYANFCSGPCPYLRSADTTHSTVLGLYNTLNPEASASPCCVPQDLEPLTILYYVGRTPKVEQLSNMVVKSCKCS

T2: TGFb2 (Homo sapiens, UniProt P61812)
T2 construct: purchased Abcam
T2 sequence (P61812 303-414 limits assumed): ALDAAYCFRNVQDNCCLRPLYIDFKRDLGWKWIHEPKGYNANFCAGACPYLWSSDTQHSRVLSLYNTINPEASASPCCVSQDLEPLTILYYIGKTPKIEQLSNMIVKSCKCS

T3: GDF15 (Homo sapiens, UniProt Q99988)
T3 construct: purchased Abcam
T3 sequence (Q99988 195-308): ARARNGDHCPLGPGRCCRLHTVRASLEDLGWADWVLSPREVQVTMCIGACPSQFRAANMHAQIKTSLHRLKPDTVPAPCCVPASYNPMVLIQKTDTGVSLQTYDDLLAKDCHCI


How the values were obtained:
[1] = biological target: T1, TGFb3; assay: ELISA binding of ligand to immobilized CLPTM1 peptide fragments; details: biotinylated peptide immobilized at 1 μM; ligand 100 ng/ml; OD 450-620 measured
Experimental: (§1) Biotinylated synthetic peptide fragments from CLPTM1 (JPT peptides, Germany) were immobilized in a streptavidin 96 well plate (#15500 Pierce) at 1 μM in PBS over night at +4° C. Plate was then washed 4 times in 300 μl PBS with 0.05% tween-20 (wash buffer). The plate was then blocked with PBS 1% BSA and 0.05% tween-20 (blocking buffer) for 1.5 hours at room temperature, then washed 4 times in wash buffer. Ligands GDF15, TGFb1, TGFb2 and TGFb3 (Abcam) were added in blocking buffer at 100 ng/ml and incubated at room temperature for 2 hours. The plate was then washed 8 times in 300 μL wash buffer with 2× NaCl. An anti-GDF15 antibody was added at 1 μg/ml (R&D Systems, goat polyclonal) or a pan-specific anti-TGFb antibody (R&D Systems, mouse 1 D11), and the plate incubated in blocking buffer for 1 hour at room temperature followed by washing with 4×300 μl wash buffer. HAF017 anti-goat-HRP antibody (to detect the anti-GDF15 antibody) or Santa Cruz sc-2005 Goat anti-mouse-HRP (to detect the pan-specific anti-TGFb antibody) was added and the plate incubated for 1 hour in blocking buffer followed by a wash. TMB substrate was added and stopped after 15 minutes with H2SO4. OD 450-620 was measured in an ELISA reader.

[2] = biological target: T4, TGFb1 (Homo sapiens, UniProt P01137); assay: as above; details: biotinylated peptide immobilized at 1 μM; ligand 100 ng/ml; OD 450-620 measured
T4 construct: purchased Abcam
Experimental: as §1

[3] = biological target: T2, TGFb2; assay: as above; details: biotinylated peptide immobilized at 1 μM; ligand 100 ng/ml; OD 450-620 measured
Experimental: as §1

[4] = biological target: T3, GDF15; assay: as above; details: biotinylated peptide immobilized at 1 μM; ligand 100 ng/ml; OD 450-620 measured
Experimental: as §1

[5] = test system: TGF-β proteins; assay: ELISA of Example 1, binding; details: result in words
Experimental: as §1

[6] = test system: M2 polarized macrophages; assay: isPLA of TBK1 after ligand stimulation; assay type: cell-based, human; details: 10 ng/ml o/n, vs untreated control
Experimental: Human primary M2 polarized macrophages was derived from PBMC obtained from healthy volunteer blood donors. CD14+ cells were isolated using an EasySep CD14 Positive Selection Kit, maintained in RPMI-1640 medium supplemented with 10% FBS, L-Glutamine and Pen-strep. Cells were cultivated for 6 days in the presence of 50 ng/ml recombinant macrophage colony-stimulating factor (M-CSF, R&D Systems) in order to polarize the cells towards an M2 subtype.
For in situ proximity ligation assay (isPLA) experiments the cells were re-plated into 8-well slides (Lab-Tek™ II Chamber Slides, Thermo Fisher).
Cells were stimulated with either TGFB1, TGFB2, TGFB3 at 10 ng/ml. For isPLA, new medium was added, with individual ligands added to separate wells, and the cells incubated o/n prior to fixation in 3% formaldehyde solution for 20 minutes on ice the following day. Fixed cells were washed extensively in PBS and lysed in PBS with 1% Triton at room temperature for 20 minutes. The cells were blocked with Duolink blocking solution (Sigma) and primary antibodies at 1 μg/ml were added o/n. […] The slides were analysed using a Zeiss inverted epiflouroscence microscope set at 20× magnification. DAPI, FITC and CY3.5 channels were recorded. […]

[7] = test system: MCF7 breast cancer cells; assay: Western blot of PTP1B after ligand stimulation; assay type: cell-based, human; details: ligand 10 ng/ml, vs untreated control
[8] = test system: PBMC; assay: Proseek secreted proteins, PBMC culture; assay type: cell-based
Experimental: (§2) Secreted proteins from cell cultures where quantified using multiplexed proximity extension assay, Proseek (Assarsson E et al PlosOne 2014) by Olink Proteomics AB (Uppsala Sweden). Data is presented as Normalized Protein Expression (NPX log 2-scale). The Oncology I v2 92-plex panel was run.
A cell suspension of heparinized peripheral blood was diluted 1:1 and placed on a Ficoll Paque Plus. Cells were centrifuged at 400×g for 30 minutes and the PBMC layer was transferred to a 50 ml tube of PBS and centrifuged for 7 min at 250×g.

[9] = test system: NK-92 cells; assay: Proseek secreted proteins, NK-92 culture; assay type: cell-based; details: NK92 culture
Experimental: as §2, with “run. NK-92 cells were cultured in RPMI-1640 supplemented with 10% FBS, 12.5% Horse serum, L-glutamine, IL2 and 3-mercaptoethanol.” for “run.”

[10] = test system: MCF7 cells; assay: Proseek secreted proteins, MCF7 culture; assay type: cell-based, human; details: FIG. 6A: exosomes from MCF7 cells, GDF15 1.5 μg/ml 1 hr
Experimental: Secreted proteins from cell cultures where quantified using multiplexed proximity extension assay, Proseek (Assarsson E et al PlosOne 2014) by Olink Proteomics AB (Uppsala Sweden). Data is presented as Normalized Protein Expression (NPX log 2-scale). The Oncology I v2 92-plex panel was run. MCF7 cells were cultured in serum-free conditions (No FBS added to DMEM) overnight prior to ligand stimulation, and media was replaced 3 times before stimulation to avoid exosomes from FBS. Cells were either treated with control (PBS) or biologically active GDF15 (Abcam) at 1.5 μg/ml for 1 hr at 37° C. For analyses of exosomes in FIG. 6A, conditioned medium was pre-cleared by centrifugation at 14,000×g for 10 min at 4° C., followed by filtration with a […] filter to avoid contaminants from cell debris, followed by ultracentrifugation at 100,000×g for 2 hrs. Pelleted exosome fraction was lysed with 1% Triton X-100 at 4° C., samples diluted in order to have 0.3% Triton concentration and analysed by Proseek multiplex panel as described above.

T4 sequence (P01137 279-390 limits assumed): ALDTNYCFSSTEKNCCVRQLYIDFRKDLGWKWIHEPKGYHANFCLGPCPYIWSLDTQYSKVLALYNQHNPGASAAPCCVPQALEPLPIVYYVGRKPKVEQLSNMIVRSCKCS

| Molecule | ELISA OD450 TGFb3 [1] | ELISA OD450 TGFb1 [2] | ELISA OD450 TGFb2 [3] | ELISA OD450 GDF15 [4] | binding to TGF-β proteins [5] | also measured |
| --- | --- | --- | --- | --- | --- | --- |
| ARSAVVAAGGGSSGQVTSNGSIGRDPPAETQPQNPPAQPA (listed as Homo sapiens) [SEQ ID NO: 34] | 0.018 | 0.043 | 0.025 | 0.220 | – | – |
| GDYYPIIYFNDYWNLQKDYYG (listed as Homo sapiens) [SEQ ID NO: 28] | 0.065 | 0.152 | 0.019 | 0.140 | binding | – |
| KALYRRLATVHMSRMINKYKG (listed as Homo sapiens) [SEQ ID NO: 17] | 0.0060 | 0.026 | 0.013 | 0.042 | binding | – |
| LDQYVKFDAVSGDYYPIIYFG (listed as Homo sapiens) [SEQ ID NO: 21] | 0.020 | 0.022 | 0.002 | 0.034 | binding | – |
| LWRWQLYAAQSTKSPWNFLGDELYEQSDEEQDSVKVALLETNP (listed as Homo sapiens) [SEQ ID NO: 33] | 0.011 | 0.013 | 0.008 | 0.033 | – | – |
| SGDYYPIIYFNDYWNLQKDYYPINESLASLPLRVSFCPLS (listed as Homo sapiens) [SEQ ID NO: 32] | 0.014 | 0.010 | 0.007 | 0.022 | favourable binding | – |
| TGFb1: TGF-β isoform 1, ligand for CLPTM1 | – | – | – | – | – | TBK1 level [6]: reduced |
| YPINESLASLPLRVSFCPLSG (listed as Homo sapiens) [SEQ ID NO: 27] | 0.068 | 0.011 | 0.005 | 0.098 | binding | – |
| TGFb3: TGF-β isoform 3, ligand for CLPTM1 (protein) ALDTNYCFRNLEENCCVRPLYIDFRQDLGWKWVHEPKGYYANFCSGPCPYLRSADTTHSTVLGLYNTLNPEASASPCCVPQDLEPLTILYYVGRTPKVEQLSNMVVKSCKCS | – | – | – | – | – | PTP1B level [7]: significantly reduced; CXCL9 secretion [8]: reduced; CXCL11 secretion [8]: reduced; Caspase-3 secretion [9]: increased |
| GDF15: Growth and Differentiation Factor 15, TGF-β superfamily ligand of CLPTM1 (protein) ARNGDHCPLGPGRCCRLHTVRASLEDLGWADWVLSPREVQVTMCIGACPSQFRAANMHAQIKTSLHRLKPDTVPAPCCVPASYNPMVLIQKTDTGVSLQTYDDLLAKDCHCI | – | – | – | – | – | HB-EGF secretion [8]: increased; IFNγ expression [8]: reduced; Midkine (MK) expression [10]: increased |

Now from value to molecule, other results behind:

| ELISA OD450 TGFb3 [1] | ELISA OD450 TGFb1 [2] | ELISA OD450 TGFb2 [3] | ELISA OD450 GDF15 [4] | binding to TGF-β proteins [5] | Molecule | also measured |
| --- | --- | --- | --- | --- | --- | --- |
| 0.095 | – | – | – | – | 36 (DTLMNLHVYISEHEHFTDFNATSALFWEQHDLVYGDWTSG; listed as Homo sapiens) [compound 36] | – |
| 0.091 | – | – | – | – | 38 (VSGDYYPIIYFNDYWNLQKDYYPINESLASLPLRVSFC; listed as Homo sapiens) [compound 38] | – |
| 0.019 | 0.010 | 0.006 | 0.023 | binds | DTLMNLHVYISEHEHFTDFNATSALFWEQHDLVYGDWTSG (listed as Homo sapiens) [SEQ ID NO: 36] | – |
| 0.151 | 1.536 | 0.164 | 0.507 | – | NAWQVIKGVLFRIFIIWAISSWFRRGPAPQDQAGPGGA (listed as Homo sapiens) [SEQ ID NO: 35] | – |
| 0.300 | 2.102 | 1.630 | 0.779 | favourable binding | PLDQYVKFDAVSGDYYPIIYFNDYWNLQKDYYPINESLA (listed as Homo sapiens) [SEQ ID NO: 39] | – |
| 0.007 | 0.177 | 0.009 | 0.021 | favourable binding | SGDYYPIIYFNDYWNLQKDYYPINESLA (listed as Homo sapiens) [SEQ ID NO: 40] | – |
| 0.041 | 0.015 | 0.009 | 0.055 | binding has also been observed | TKSGFHPDPRQKALYRRLATVHMSRMINKYKRRRFQKTKN (listed as Homo sapiens) [SEQ ID NO: 37] | – |
| 0.029 | 0.032 | 0.014 | 0.061 | favourable binding | VSGDYYPIIYFNDYWNLQKDYYPINESLASLPLRVSFC (listed as Homo sapiens) [SEQ ID NO: 38] | – |
